One block for each substance: values may come before it.
How the values were obtained:
[1] = biological target: human TIGIT on cells (human) (UniProt Q495A1); assay: FACS blocking: Expi293 human TIGIT cells pre-incubated with mAb, then human PVR-m2aFc; lower gMFI = more blocking
[2] = biological target: human TIGIT on cells (human) (UniProt Q495A1); assay: FACS titration on Expi293 human TIGIT over-expressing cells (gMFI OE:Parental); ± 95% CI; 'Fit: Fair/Good'
[3] = biological target: human TIGIT on cells (human) (UniProt Q495A1); assay: FACS, Expi293 human TIGIT over-expressing cells
mPVRL2 HIS (mouse) [4] = biological target: mPVRL2 HIS (mouse) (UniProt P32507); assay: ELISA: soluble receptor Fc titrated on immobilized mPVRL2 HIS
mPVRL2 HIS (mouse), sequence (P32507 32-351 limits assumed): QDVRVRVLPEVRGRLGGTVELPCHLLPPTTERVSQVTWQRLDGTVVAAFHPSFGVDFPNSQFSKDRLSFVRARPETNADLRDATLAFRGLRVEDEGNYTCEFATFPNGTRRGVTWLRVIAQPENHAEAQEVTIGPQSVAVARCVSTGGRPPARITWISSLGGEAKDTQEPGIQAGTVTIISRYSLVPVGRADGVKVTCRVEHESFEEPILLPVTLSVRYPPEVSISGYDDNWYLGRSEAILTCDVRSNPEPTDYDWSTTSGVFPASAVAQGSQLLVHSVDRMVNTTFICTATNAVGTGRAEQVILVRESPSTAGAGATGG

[5] = biological target: mPVR (recombinant protein) (mouse); assay: SPR/ELISA with recombinant proteins
mPVRL2 HIS (mouse) [6] = biological target: mPVRL2 HIS (mouse) (UniProt P32507); assay: ELISA: mPVRIG-mFc titrated on mPVRL2

human TIGIT on cells (human), sequence (Q495A1 22-141): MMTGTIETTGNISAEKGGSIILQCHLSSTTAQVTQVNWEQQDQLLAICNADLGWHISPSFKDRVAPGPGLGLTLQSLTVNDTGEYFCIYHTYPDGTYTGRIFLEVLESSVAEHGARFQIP

gMFI of bound PVR-m2aFc at 266 pM mAb [1]: 959 | gMFI of bound PVR-m2aFc at 1.3 nM mAb [1]: 964 | gMFI of bound PVR-m2aFc at 6.7 nM mAb [1]: 828
Substance: Synagis hIgG4 (antibody)

Kd [2]: 8.48 nM | EC90 [3]: 158 nM
Substance: human PVR-m2aFc (Compugen) (from UniProt P15151 21-343) (Fc fusion)

EC50 (read off the curve) (mPVRL2 HIS (mouse) [4]): 2 nM | fold lower affinity than the interaction with mPVRL2 [5]: 10 fold | EC50 (read off the curve) (mPVRL2 HIS (mouse) [6]): 2 nM
Substance: mouse PVRIG-Fc fusion protein
